For test [1], the system named is colon cancer cell line (CT26) tumor. Put plainly: Tumor immune cell FACS analysis in CT26 syngeneic mouse tumor model. It is filed as in vivo, BALB/c mice.
Excerpt: In order to identify effects of the anti-CD300c monoclonal antibody CL7 on tumor-associated macrophages under in vivo conditions, a colon cancer cell line (CT26) at 2×10^5 cells was transplanted by subcutaneous injection into 8-week-old BALB/c mice to prepare syngeneic mouse tumor models. Animal breeding and experiments were all conducted in a specific pathogen free (SPF) facility. In addition, 12 days after transplantation of the colon cancer cell line, the mice with a tumor size of 50 mm^3 to 100 mm^3 were separately administered the anti-CD300c monoclonal antibody, and for a control group, the mice were injected with the same amount of phosphate buffered saline (PBS). The mice were intraperitoneally injected with 25 mg/kg of each substance twice a week for two weeks over a total of 4 times. On day 25 after the injection, the mice were sacrificed, and the tumor tissue was collected from each of six mice in the CL7 25 mg/kg administration group showing a highest antitumor effect compared with the control group. The tumor tissue was taken out and then incubated at 37° C. for 1 hour in a mixed solution of collagenase D (20 mg/mL) and DNase I (2 mg/mL). Thereafter, the resultant product was filtered through a 70 μm cell strainer, followed by the lysis of red blood cells, and then again filtered through a nylon mesh. Subsequently, the single cell suspension was blocked with CD16/32 antibody (from Invitrogen), and the cells were stained with a staining solution for checking cell viability (from Invitrogen), and antibodies (from Abcam) to the total macrophage marker F4/80 and the M1 macrophage marker iNOS. Then, the data were read with CytoFLEX flow cytometer and analyzed with FlowJo software.
In order to identify effects of the anti-CD300c monoclonal antibody CL7 on CD8+ T cells under in vivo conditions, syngeneic mouse tumor models were prepared as in Experimental Example 3.2 and administered the anti-CD300c monoclonal antibody at the same concentration.
(§1) On day 25 after the injection, the mice were sacrificed, and the tumor tissue was collected from each of six mice in the CL7 25 mg/kg administration group showing a highest antitumor effect compared with the control group. The tumor tissue was taken out and then incubated at 37° C. for 1 hour in a mixed solution of collagenase D (20 mg/mL) and DNase I (2 mg/mL). Thereafter, the resultant product was filtered through a 70 μm cell strainer, followed by the lysis of red blood cells, and then again filtered through a nylon mesh. Subsequently, the single cell suspension was blocked with CD16/32 antibody (from Invitrogen), and the cells were stained with a staining solution for checking cell viability and a CD8+ antibody (from Abcam) and a CD4+ antibody (from Abcam). Thereafter, the data were read with CytoFLEX flow cytometer and analyzed with FlowJo software.
as §1, with “In order to identify whether the anti-CD300c monoclonal antibody CL7 increases the number of CD8+ T cells in a tumor-specific manner, syngeneic mouse tumor models were prepared as in Experimental Example 3.2 and administered the anti-CD300c monoclonal antibody at the same concentration. On” for “On”, “AH1 tetramer” for “a CD8+ antibody (from Abcam) and a CD4+”, “software. […]” for “software.”
(In general: In flow cytometry, cells or beads pass a laser one at a time.)

Test [2] deals with mouse macrophages (Raw264.7). The test is described as follows: TNF-α production in mouse macrophages (M1 differentiation). The class given is cell-based. The following applies: Raw264.7, 10 μg/mL. As to the method: In order to identify whether anti-CD300c monoclonal antibodies can promote the differentiation from mouse macrophages into M1 macrophages, mouse macrophages (Raw264.7) were dispensed into a 96-well plate at a concentration of 1×10^4 cells/well, and then treated with 10 μg/mL CL7, followed by incubation. Thereafter, the production amount of TNF-α was identified by an ELISA kit (Human TNF-α Quantikine kit, R&D Systems).

The next test deals with T1, CD300a antigen (Homo sapiens, UniProt Q9UGN4).
T1 construct: purchased Sino Biological 12449-H08H
T1 sequence (Q9UGN4 18-180 limits assumed): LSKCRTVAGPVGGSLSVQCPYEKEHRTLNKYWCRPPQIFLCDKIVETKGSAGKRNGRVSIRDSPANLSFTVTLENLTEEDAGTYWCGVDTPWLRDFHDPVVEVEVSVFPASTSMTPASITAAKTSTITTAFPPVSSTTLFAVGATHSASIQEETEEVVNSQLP
Put plainly: CD300a cross-reactivity binding ELISA. The following applies: CD300a antigen 0.039, 0.63, 10 μg/mL. As to the method: More specifically, the CD300a antigen (from Sino Biological) was used to treat at concentrations of 0.039 μg/mL, 0.63 μg/mL, and 10 μg/mL, and then binding ELISA was performed by the same method as in Experimental Example 2.1.

Test [3] concerns colon cancer cell line (CT26) tumor. Put plainly: In vivo cancer growth inhibition, CT26 model, CL7 dose range. The following applies: 1, 5, 10 or 25 mg/kg i.p. on D11, D14, D18, D21; 25 days. More on the design: species or system BALB/c mice. As to the method:
In order to identify anticancer effects of the anti-CD300c monoclonal antibody CL7 under in vivo conditions, a colon cancer cell line (CT26) at 2×10^5 cells was transplanted by subcutaneous injection into 8-week-old BALB/c mice to prepare syngeneic mouse tumor models. Animal breeding and experiments were all conducted in a SPF facility. On day 11 (D11) after the transplantation of the colon cancer cell line, the mice with a tumor size of 50 mm^3 to 100 mm^3 were administered the anti-CD300c monoclonal antibody 1 mg/kg, 5 mg/kg, 10 mg/kg, or 25 mg/kg, respectively, and for a control group, the mice were administered the same amount of phosphate buffered saline (PBS). Specifically, the mice were intraperitoneally injected with each dosage twice a week for two weeks (a total of 4 times on D11, D14, D18, and D21). The tumor volume was measured for 25 days.

Setting [4] is: Experimental Example 3.7, 25 mg/kg i.p., day 25.

B1: CL7: anti-CD300c monoclonal antibody, VH3VL1 phage library, VH SEQ ID 327, VL SEQ ID 328 (antibody, V domains shown)
VH: EVQLLESGGGLVQPGGSLRLSCAASGFTFSRYAMSWVRQAPGKGLEWVSAISGSGGSTYYADSVKGRFTISRDNSKNTLYLQMNSLRAEDTAVYYCARSSQGIFDIWGQGTLVTVSS
VL: QSVLTQPPSASGTPGQRVTISCSGNNIGTRRVHWYQQLPDTAPKLLIYSKNNRPSGVPDRFSGSKSGTSASLAISGLRSEDEADYYCAAWDDSLSGPVFGGGTKLTVL
modifications: CL7 Heavy Chain Variable Region; CL7 Light Chain Variable Region
Turning to B1, the “expression level of M1 type tumor-associated macrophages in cancer tissue” value in test [1] (25 mg/kg i.p. twice a week, 4 times, day 25, vs PBS) is recorded as “increased”. Moreover, in test [1] (25 mg/kg i.p., day 25), the “CD8+ T cells compared with Treg T cells” value is recorded as “increased” and the “expression of AH1 tetramer in CD8+ T cells” value is recorded as “increased”. Also, in test [1] (25 mg/kg i.p., day 25, CD8+/CD4+ staining), the “number of T cells in tumor” value is listed as “increased”. In test [1] (setting [4]), the “activated CD8+ T cells” value is on record as “significantly increased”, the “regulatory T cells” value is “inhibited” and the tumor-associated macrophage phenotype result was “repolarized tumor-associated macrophages towards M1 phenotype”. Further, the “production level of TNF-α” value in test [2] is listed as “increased”. Moreover, in the test with CD300a antigen, the “binding to antigens other than CD300c (CD300a)” value is reported as “did not bind to antigens other than CD300c”. In test [3], the “growth of CT26 colon cancer (tumor volume)” value was “delayed the growth of CT26 colon cancer in a dose-dependent manner”.

For the origin of these results see patent US20240254220A1, “COMBINED THERAPY USING ANTI-CD300C ANTIBODY” (CentricsBio, Inc., priority 2021, published 2024).
